Source: US8916149B2, “Preventing and treating sepsis” (University of Rochester, priority 2008, dated 2014)
Entries after “also recorded” stand apart in the source; their conditions may differ.

Experiments:
neutrophil = details: without any protein coatings; cited from earlier work
human neutrophils [1] = assay: Neutrophil adhesion assay on immobilized fibronectin (FN); assay type: cell-based; details: 10 μg/ml protein
Method: The adhesion assay was carried out essentially as described (Vorup-Jensen et al., PNAS 102:1614 (2005)). Cover slips were coated with FN in coating buffer (150 mM NaCl/20 mM Tris.HCl, pH 9.0) for over night at 4° C. and for 4 hours at room temperature. Residual binding sites were blocked by incubation of the wells with 0.05% (wt/vol) polyvinylpyrrolidone in PBS for 30 minutes at room temperature. […] The cover slips were aspirated, and washed with L15 medium. […] Cells (250 μl) were then immediately added, and further incubated at 37° C. for 15 minutes. Unbound cells were then washed with warm L15 medium. The bound cells were then fixed with formaldehyde. For each experimental condition from three independent donors, five random phase-contrast images were obtained, and the number of cells in each well was scored from printed micrographs.

human neutrophils [2] = assay: Intracellular Ca2+ measurement (Fluo-4); assay type: cell-based; details: 10 nM fMLP
Method: 1×10^7 cells/ml of human neutrophils were labeled with […] Fluo-4 AM (Molecular Probes, Eugene, Oreg.) at 37° C. for 30 minutes, then at room temperature for an additional 5 to 10 minutes. After washing twice, cells were resuspended to 4×10^6 cells/ml (6 ml) in F15 and incubated at RT for de-esterification. For measurements, cells (4×10^6) were spun down in a microtube (1 ml), resuspend in 1 ml of F15 at 37° C., transferred to a quartz cuvette containing a fluorometric stir bar and 1 ml of the same buffer at 37° C., and fluorescence signals were measured in the fluorometer.

human neutrophils [3] = assay: Random migration of neutrophils on FN-coated cover glass (live-cell imaging); assay type: cell-based
Method: Delta T dishes were coated with human FN (50 μg/ml, BD Biosciences, San Jose, Calif.) for overnight at 4° C. and then for 4 h at room temperature. Plates were then rinsed with L-15 media. […] The cells were then added to FN-coated dishes in 1.5 ml of L-15 with 2 mg/ml of glucose. For neutrophil live cell staining, 2 μM Green Cell Tracker CMFDA (5-chloromethylfluorescein diacetate; Molecular Probes, Carlsbad, Calif.) was used. Temperature was maintained at 37° C. throughout the experiment using a FCS2 live-cell imaging chamber (Bioptechs, Butler, Pa.). Images were acquired for 30 to 60 minutes under a 10× objective lens using a Nikon TE-2000U inverted microscope. Phase contrast images were acquired every 5 seconds and fluorescence images every 30 seconds. Cell paths were traced using MetaVue™ imaging software (Molecular Devices Corporation, Downingtown, Pa.).
Random migration was investigated by adding fMLP or IL-8 to media at a final concentration of 10^−8M and analyzed by manually tracing the outline of each cell in selected frames (i.e., at 50 second intervals). The x and y coordinates of each cell were measured using ImageJ software and were corrected so that the starting position was x=0 and y=0.
The time-lapsed images of migrating neutrophils were taken under phase contrast microscopy. Each image was thresholded and binarized based on brightness to define the centroids of the neutrophils. The closest centroids between consecutive images were linked as a trajectory under the assumption that these centroids were made by the same neutrophil. The maximum distance between the closest centroids was also defined to preclude the artifacts due to cells moving into and out of the field of view.

[4] = tested on: patients with severe sepsis; details: subset of patients; cited from earlier work

B1: rhAPC: Recombinant human activated protein C obtained from Eli Lilly; FDA-approved drug for severe sepsis (protein)
chain 1: ANSFLEELRHSSLERECIEEICDFEEAKEIFQNVDDTLAFWSKHVDGDQCLVLPLEHPCASLCCGHGTCIDGIGSFSCDCRSGWEGRFCQREVSFLNCSLDNGGCTHYCLEEVGWRRCSCAPGYKLGDDLLQCHPAVKFPCGRPWKRMEKKRSHL
chain 2: LIDGKMTRRGDSPWQVVLLDSKKKLACGAVLIHPSWVLTAAHCMDESKKLLVRLGEYDLRRWEKWELDLDIKEVFVHPNYSKSTTDNDIALLHLAQPATLSQTIVPICLPDSGLAERELNQAGQETLVTGWGYHSSREKEAKRNRTFVLNFIKIPVVPHNECSEVMSNMVSENMLCAGILGDRQDACEGDSGGPMVASFHGTWFLVGLVSWGEGCGLLHNYGVYTKVSRYLDWIHGHIRDKEAPQKSWAP
In the case of B1, the “neutrophil migration through nitrocellulose micropore filter” value (neutrophil) is listed as “inhibited”, the “fMLP-induced adhesion of human neutrophils to immobilized FN” value (human neutrophils [1]) is listed as “significantly reduced; also recorded: abolished” and the “increase in intracellular Ca2+ concentration by fMLP treatment” value (human neutrophils [2]) is listed as “had no effect”. For the same molecule, the “random migration of neutrophils on FN induced by fMLP” value (human neutrophils [3]; 10 μg/ml protein, fMLP) was “dramatically reduced”, the “neutrophil migration on FN by IL-8” value (human neutrophils [3]; rhAPC pre-treatment, IL-8) was “dramatically decreased” and the “mortality in patients with severe sepsis” value [4] was “significantly reduced”.
